Laboratory results from paper PMC9890229.

Columns and labels:
[1] = target: T1, Hfq;Crc (Pseudomonas aeruginosa;Pseudomonas aeruginosa) (UniProt Q9HUM0+Q51380); experiment: EMSA; settings: EMSA: 20 mM Tris-HCl pH 8.0, 40 mM NaCl, 10 mM KCl, 1 mM MgCl2; 200 nM RNA; 15 min at 37 C; 4% PAA gel in 1x TBE at 4 C, SYBR gold
[2] = target: T1, Hfq;Crc (Pseudomonas aeruginosa;Pseudomonas aeruginosa); experiment: cryo-EM; settings: EMSA: 20 mM Tris-HCl pH 8.0, 40 mM NaCl, 10 mM KCl, 1 mM MgCl2; 200 nM RNA; 15 min at 37 C; 4% PAA gel in 1x TBE at 4 C, SYBR gold

| Sequence | binding [1] | binding [2] |
| --- | --- | --- |
| GGCUGAGGAGGCUUUACGACGGGCCCCGGGGCGCAUGCCGACGACGCGGCGGCCCGACAAUAAAAACAAAUCAUGGAGUAAGAGAAUGAUCAGAAUGGCGCUCAAGCCACUGGUAGCG [estA118] | binds | binds |
| GGGCCUUUUUUCGUCCCGAAAAAAUAACAACAAGAGGUGAUAUCCAUGCGUCACGGCGAUAUUUCCAGCAGCAACGACACCGUCGGAGUGGCGGUGGUCAACUAC [amiE105] | binds | binds |
| GGAACGCAAACGUUUGCGUCUGGAUAAUCUCCUGGAAAAGCCUCAAUACAACGAUAAGAAAAGCUGGAGGAUACACCAUGAAGCGGGUCGCUUCCCGGCGCCUGUUGGCU [rbsB110] | binds | binds |
